Molecular target: IMI4C4a antibody (monoclonal antibody produced from Mouse-Mouse hybridoma IMI4C4a)
Experiment: competitive inhibition ELISA, peptide preincubated with IMI4C4a (333 pM), immobilized ICD4

Chain of IMI4C4a antibody (monoclonal antibody produced from Mouse-Mouse hybridoma IMI4C4a) (VH, as listed by the source, chain 1 of 2): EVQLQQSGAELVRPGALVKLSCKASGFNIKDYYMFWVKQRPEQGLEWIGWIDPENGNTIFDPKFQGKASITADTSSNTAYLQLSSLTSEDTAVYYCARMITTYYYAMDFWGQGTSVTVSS
Chain of IMI4C4a antibody (monoclonal antibody produced from Mouse-Mouse hybridoma IMI4C4a) (V domain, as listed by the source, chain 2 of 2): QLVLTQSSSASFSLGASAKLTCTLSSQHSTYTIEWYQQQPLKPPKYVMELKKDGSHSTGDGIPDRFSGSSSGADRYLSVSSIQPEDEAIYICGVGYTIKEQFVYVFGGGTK

molar ratio to the antibody without inhibition	molar ratio to the antibody at which an inhibitory effect started	molar ratio to the antibody giving significant inhibition	Binder
> 10000 fold molar ratio relative to the antibody concentration			THCHETEESTIKDSTT [ICD4_227-242 (chemically synthesized peptide)]
> 10000 fold molar ratio relative to the antibody concentration			STIKDSTTQKAGLPSK [ICD4_235-250 (chemically synthesized peptide)]
	50 fold molar ratio relative to the antibody concentration	≥ 500 fold molar ratio relative to the antibody concentration	TQKAGLPSKNLTVSQNQ [ICD4_242-258 (chemically synthesized peptide)]

— patent publication US20170313770A1 (ORDER MADE MEDICAL RESEARCH, published 2017)
